Measurements from the RNAGym collection of RNA variant scans (doi:10.1073/pnas.2313332121).

B1: TPR t1 (parent)
chain: GACCAAUCUGCCCUCAGAGCUCGAGAACAUCUUCGGAUGCAGAGGAGGCAGGCUUCGGUGGCGCGAUAGCGCCAACGUCCUCAACCUCCAAUGCAUCCCACCACAUGAUGAUGCCUGAAGAGCCUUGGUUUUUUG

Variants of: B1
Test: polymerase ribozyme fitness, log enrichment relative to wild type (log ratio); higher = more active; in vitro selection for triplet polymerase activity
Outline: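 Only genotypes with ≥10 input reads and ≥1 read per output were kept after Illumina sequencing of input and output libraries. These libraries were PCR-built, transcribed mutants of each subunit of a heterodimeric triplet polymerase ribozyme, each put through one triplicate in vitro selection round with frozen incubation at −7 °C, gel excision of extended constructs, streptavidin-bead capture and RT-PCR. Fitness is a logarithmic ratio of genotype enrichment to wild-type enrichment, from inverse-variance-weighted replicate averages, with the logarithm in base 2.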

In order of falling “polymerase ribozyme fitness (log ratio)” value:
1. A24G A119U C123G U125A  0.361
2. A24G U112A  -0.197
3. A24G G120A  -0.603
4. A24G C123G  -0.893
5. A24G U59G  -1.69
6. A24G U55G  -1.71
7. A24G C88A C115A  -1.84
8. A24G A37G G47A G120C  -1.98
9. A24G C86U  -2.07
10. A24G C73G G120A  -2.15
11. A24G G71U U106A  -2.23
12. A24G C56A G60U A83C  -2.27
13. A24G C86G  -2.33
14. A26C G69U G120U  -2.51
15. A24G U59C U87A  -2.51
16. A24G A75U  -2.53
17. C22U U112A  -2.83
18. A26G A41G G60C G93A  -2.97
19. A26G A29C  -3.02
20. A24G C62U U81A  -3.04
21. C22G U38A G61U C124U  -3.08
22. C22G U54A  -3.16
23. A24G G48A G93A C97U A111G  -3.16
24. A24G C64U U96G A111C  -3.27
25. A24U C123G  -3.41
26. C22G G93A  -3.42
27. C22U U78C  -3.42
28. A24G A46C A111C U130G  -3.43
29. C22G U131A  -3.47
30. C22U U55G C72A U106A  -3.49
31. C22U U55A  -3.49
32. C22U C76A  -3.53
33. C22U A75G  -3.55
34. A24G C49U G60U U129A  -3.61
35. C22U C73A  -3.74
36. C22G U38A U96C U112A A121U  -3.78
37. G23U G120C  -3.8
38. C22U  -3.85
39. C22U G71A  -3.86
40. C22U G63U C82U C124G U126A  -3.87
41. A24G G71U C86G  -3.88
42. G23A C115U  -3.88
43. C22U U59C A100C  -3.95
44. A24G U54C C62G  -3.96
45. G23A G69U  -3.97
46. C22U G93A  -3.97
47. A24G C62A A74C G120C  -4.13
48. A24U C123U  -4.2
49. C22U C86G A100C A121U  -4.27
50. C22U C62U  -4.34
51. C22U A26U U54G A118U  -4.35
52. C22U G63A  -4.36
53. C22U C53U  -4.37
54. G23A  -4.43
55. G23A U112A  -4.45
56. C22U G63C  -4.47
57. C22U C70A  -4.49
58. A24C A26G  -4.53
59. C22G U87G G113U A119G G127C  -4.58
60. C22U C115G  -4.6
61. C22U C82A C101A  -4.64
62. A26C C49A C123U  -4.69
63. C22U A37U G57A C115A  -4.73
64. C22U G63U  -4.76
65. C22U C86G A100C A121U G135U  -4.77
66. A26C G47C U112A  -4.78
67. C22U A37U  -4.82
68. C22U G60C  -4.82
69. C22U G52C  -4.83
70. C22U G60A C123A  -4.89
71. C22U G71C  -4.89
72. C22U C82A A84C G93C U112C  -4.92
73. G25C G120A  -5.07
74. A24G C70A G110A A111U  -5.11
75. C22U A43G G61A C115A  -5.11
76. A26C G63A C82G A90G U112A  -5.15
77. A26C G36U A41U G120U U132A  -5.17
78. C22U C40U G57U  -5.18
79. G23A G113C  -5.19
80. G23A G63C C76U C101U A111G  -5.22
81. C22U G93U  -5.26
82. C22U C31G A50U C72G C82A A95G G107C  -5.28
83. C22G G113C  -5.28
84. G25C U116C  -5.31
85. G23A G36A  -5.32
86. A24G G71A G127U  -5.42
87. A24G A29U G45A G47C G77C U129A  -5.43
88. G23U G69U  -5.44
89. C22G U96G C104G  -5.47
90. G23C C123U  -5.53
91. A26C A46G G69U A74U  -5.53
92. G25U C56G  -5.61
93. A24G C34A G45U G57U C72U  -5.61
94. A24U C88G  -5.62
95. C22G G69A C79A  -5.64
96. G23U C53U  -5.67
97. C22U G45A C89U A121C C124G U125A  -5.69
98. A26C C40G U87C C101U C104U  -5.71
99. C22U G52A C88U  -5.75
100. A24U C79U C114U G128A U131A  -5.77
101. A26C G61C U112G  -5.78
102. G25A A41U  -5.8
103. G25C G36U U87A A108G G120A G135C  -5.8
104. G25U A46U  -5.86
105. A26C C72U  -5.89
106. A26C G36A G61A  -5.9
107. C22U U81A C88G  -5.9
108. G23A A46C C124A  -5.92
109. G25U C104U  -5.92
110. G23A C94A A111G  -5.95
111. G23C G120A  -5.95
112. G25U A43C U78G A121G  -5.96
113. A26C U55G  -5.98
114. G23A C72U C85U  -6.02
115. G23U  -6.05
116. A24G C28G G48U C64U  -6.05
117. C22U C34U C73U A83C C124G  -6.07
118. A24U G110A  -6.09
119. A24C C73G A83U C114G  -6.1
120. G23U C73A  -6.12
121. G23A G36C  -6.17
122. C22U G63U U78G U112A  -6.24
123. G25C G47U C64G U109A U133C  -6.25
124. C22U A41U C73G C99U  -6.26
125. G23U G117A  -6.33
126. G23U G35A A46U G47U G71A G117C U130A  -6.34
127. A24U A37G A108G G110U A121C  -6.34
128. G23C  -6.4
129. G25C G58A C64A A83C G110C  -6.43
130. G25A A74U A100C U109A U130A  -6.43
131. G25A U33A G61A G77U C115A  -6.46
132. G23U C56U  -6.5
133. C22U A24G G47A U54A G57A G61A U81A  -6.51
134. A26C G39U C114G  -6.59
135. C22U U33A G36A G42A C72U U87A G113A  -6.59
136. G25A G47U A100U G110U U112A  -6.61
137. G25C G61C U96C C98A U112G C123U  -6.63
138. G23U C72U  -6.65
139. G25A C80A U92A U112A  -6.66
140. A26C A46C C115G  -6.72
141. A24C C102U  -6.73
142. A24U G47A G110A C114A  -6.75
143. A26C G35A G61U C98G C124U  -6.78
144. G25A C72U C124A  -6.83
145. C22U G93C C114A  -6.86
146. G25U A29G G45A C80U G110U  -6.86
147. A24U G36U U87C A90G G120U C124A U130G  -6.87
148. G25C A111U  -6.92
149. A24G C62A C89G G113C C115A A118C  -6.92
150. G25A G47A A100G U112G C123U  -6.98
151. G23U A26C A43U G93A G117C  -7.04
152. G23C A37G C40A G45A G57A C114A A118U  -7.04
153. G23A C62A  -7.09
154. G23A C56G C76U G110A G117A C124G  -7.16
155. G23U G48U C62A C64A C86U C99A G117U  -7.32
156. G25A U54A G61U  -7.38
157. A26C G35C G39U A90C G117U  -7.41
158. G23U A43U G60A  -7.42
159. C22U A41U C53U C56U G61U G110U A121C  -7.42
160. C22U G45U G47C  -7.47
161. G23U G61U C86A A100U C114U G117U  -7.47
162. A26C G39C C56A A100G U112C  -7.51
163. G23U G44C C53G C94A U106G G113A  -7.53
164. A26C G47C C88A C102G A105C C123A  -7.85
165. G23U U33G C49G C53G U59G G71A U78A A84U C94G A100U  -8.02
166. G25C U32A G42C G45A G51C A111U  -8.24
167. G25C U33G C34U A46U C70A  -8.69
